Laboratory results reported in the RNAGym collection of RNA variant scans (doi:10.1073/pnas.2313332121).

B1: TPR t1 (parent)
chain: GACCAAUCUGCCCUCAGAGCUCGAGAACAUCUUCGGAUGCAGAGGAGGCAGGCUUCGGUGGCGCGAUAGCGCCAACGUCCUCAACCUCCAAUGCAUCCCACCACAUGAUGAUGCCUGAAGAGCCUUGGUUUUUUG

Variants of: B1
Assay: polymerase ribozyme fitness, log enrichment relative to wild type (log ratio); higher = more active; in vitro selection for triplet polymerase activity
How it was run: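 Genotype fitness is the logarithm of its enrichment divided by wild-type enrichment, using inverse-variance-weighted averages of replicates. That logarithm is base 2. Enrichment was measured by Illumina sequencing of input and output libraries from one triplicate in vitro selection round, with frozen incubation at −7 °C, on PCR-built, transcribed mutant libraries of each subunit of a heterodimeric triplet polymerase ribozyme, retaining genotypes with ≥10 input reads and ≥1 read per output.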

| Variant | polymerase ribozyme fitness (log ratio) |
| --- | --- |
| A103U G113A | -3.81 |
| C102U A121G | 0.0036 |
| G117C A121C | -3.29 |
| U112A C115A | 1.16 |
| G122U U130G | -0.749 |
| U96G U129C | -0.569 |
| G110C G128U | -4.78 |
| A118U G128A | -1.29 |
| G113C G127C | -3.73 |
| C97U C123G U126A | 0.329 |
| C124U U126A | 1.37 |
| G107U A111U | -4.03 |
| C102U A119G | -0.237 |
| A100C G117A | -2.55 |
| C101U G135U | -1.68 |
| G113U U126A | -4.71 |
| U109C U132A | -4.52 |
| C101A U132A | -0.824 |
| A105U G135C | -2.07 |
| A105U G135U | -2.99 |
| G113C G128U | -4.01 |
| C99U A121G | -0.804 |
| C101A U126G G127C | -2.49 |
| C97U U125A | -1.31 |

| Variant | polymerase ribozyme fitness (log ratio) |
| --- | --- |
| C97U U125G | -1.25 |
| G117A G128C | -3.45 |
| U96G C98U | -3.02 |
| A103G C115U U129G U133A | -5.83 |
| U96G C102G C124U U125A | -6.03 |
| G113C C115U | -3.35 |
| C115U U116C | -2.06 |
| A105C C114A | -3.98 |
| A103C C123A C124A | -3.52 |
| C123G U125C | 1.61 |
| C101G C114A | -3.3 |
| C104A G122A | -2.31 |
| A105C U125G | -3.17 |
| C101U U112A | 0.284 |
| C101U U112C | 0.493 |
| C98A G120A | -3.18 |
| U112C U129C | 0.894 |
| U109A U131G | -5.71 |
| C98A C123U | -4.06 |
| C97U U106G | -2.7 |
| C98G G120C | -3.19 |
| U96A U112C G127C | -0.056 |
| C101U G107C | -6.63 |
| U116G G128U | -4.55 |

| Variant | polymerase ribozyme fitness (log ratio) |
| --- | --- |
| A100U U129A | -0.992 |
| G113C G120U | -3.23 |
| U106C A118U | -0.171 |
| C97U U116G | -2.81 |
| A103U U132A | -5.02 |
| A111U C123U G127C | -4.76 |
| C114U G117C | -7.14 |
| U96C C123G | 1.78 |
| A100C U106A U132C | -0.19 |
| C102A U125G | -2.8 |
| U96C A100U | -1.08 |
| U96G C102A G127C | -3.73 |
| A121C U125G | 0.923 |
| C104U U112G | 0.761 |
| C123A G135A | 0.422 |
| C104U U116C | -0.608 |
| G120A G127C | -0.483 |
| C99A C102U | -4.82 |
| G113U C114A | -4.29 |
| G110C U133A | -4.65 |
| C98A C104U | -4.88 |
| C104U G113C C123A | -3.61 |
| U96G G113U | -3.21 |
| C101G G127U | -2.83 |

| Variant | polymerase ribozyme fitness (log ratio) |
| --- | --- |
| G122U C124G U130A | 0.942 |
| U112G A118G | 0.909 |
| C102A U130A | -3.46 |
| C114G G135U | -2.93 |
| G110C U129G | -5.19 |
| U116C U130G | -1.58 |
| U106G G110C U112C | -5.6 |
| G117C G122U | -3.99 |
| G113U G122A | -2.45 |
| U109A U132C | -5.12 |
| C101U A108U U109G | -6.14 |
| G110U C123U | -1.39 |
| C101A G107U U112G | -6.92 |
| G113C G122A | -3.11 |
| G113C G122U | -1.42 |
| G117A U125A | -3.14 |
| A119U A121U | 1.77 |
| A111G U132A | 0.715 |
| U112A U130G | -0.266 |
| U112A U130C | 1.38 |
| G122A U130A | -0.49 |
| C97A | -4.67 |
| C97U | -0.53 |
| C97G | -4.4 |

| Variant | polymerase ribozyme fitness (log ratio) |
| --- | --- |
| U109G A118G | -5.14 |
| G120A G122U | 0.476 |
| C97U G117A | -2.32 |
| G110C U125C | -2.68 |
| A108G G113A | -2.47 |
| C97G A119G | -2.68 |
| C104U U106A | -0.522 |
| C104U C115G | -1.22 |
| C104U C115A | 0.0102 |
| G110A U112C G117A | -4.79 |
| G113A G128A | -2.92 |
| U112C U132A | 1.65 |
| U96A U125G | -1.93 |
| C115A A119U G122U | -0.198 |
| C97U A119U C123A | -1.43 |
| A111U G113C C115G | -7.15 |
| G110A A118G | -1.12 |
| C101A G113A G122C | -1.6 |
| C115U C124G | 0.35 |
| U112A G117A G120U C124G | -1.37 |
| G110A G128U | -3.47 |
| U106G G117C | -1.59 |
| C97A U112C | -2.11 |
| A111C U126C | 0.272 |

| Variant | polymerase ribozyme fitness (log ratio) |
| --- | --- |
| G113A G122A | -2.77 |
| G120C G128C | -2.04 |
| C104U G120C | 0.802 |
| G113A U134G G135U | -1.24 |
| C123G U131A | 0.367 |
| C101A C115U | -2.63 |
| C99A G120C | -3.95 |
| G122A | -0.49 |
| G122U | 0.322 |
| G122C | -2.37 |
| G117C U132A | -3.52 |
| G107U C114U | -3.8 |
| C101U A121G U126A | 1.07 |
| C104G G113C | -6.7 |
| C98U G117C | -5.29 |
| U109C C114U | -4.7 |
| U96C U126C | -1.7 |
| U106G A119G | 0.3 |
| C123A G128U | -0.255 |
| C124A G128U | 0.625 |
| G117A A121C | -0.623 |
| U106A A111C | -1.96 |
| C102A A121U U131C | 0.0525 |
| G117A U133A | -1.2 |

| Variant | polymerase ribozyme fitness (log ratio) |
| --- | --- |
| C115U G117A | -1.61 |
| G117A G120A | -2.42 |
| U106A G117U G127U | -0.344 |
| A119U G127U | -2.01 |
| A118U C123U | -0.82 |
| C99A C123G | -4.92 |
| G110U G135C | -1.54 |
| U112A G128U | -0.362 |
| C124A U125A | 1.57 |
| C101U U109G A111U | -4.63 |
| C101G C124G | -0.536 |
| U106G C114G | -3.54 |
| G107A G122A | -5.18 |
| C99A U112G C114U | -6.6 |
| C101G U133G | -2.02 |
| C114U C123U | -1.92 |
| U106A U129A | -1.17 |
| A119U C123A | -0.124 |
| A119U C123U | 2.17 |
| U112G U125C | 0.47 |
| G117C U130G | -3.7 |
| C101A G113A | -2.4 |
| U116C G127A U130G | -4.14 |
